Laboratory results as given in patent US20150218594A1, “CELL-FREE AND MINIMIZED METABOLIC REACTION CASCADES FOR THE PRODUCTION OF CHEMICALS” (CLARIANT PRODUKTE (DEUTSCHLAND) GMBH, priority 2012, published 2015).
Like-named read-outs stand apart in the source and are kept apart here. Marks after values point to notes of the source that are not given here.

Assays:
[1] = ALDH activity assay (glyceraldehyde to glycerate, NAD reduction); type: biochemical; settings: natural substrate
Experimental: (§1) (J. Mol. Catal. B-Enzym. 2009, 61, 30-35).
ALDH activity: ALDH activity was assayed at 50° C. by oxidizing D-glyceraldeyde to glycerate, whereby the coenzyme NAD is reduced to NADH. Assay mixture contained 50 mM HEPES (pH 7), 2.5 mM MgCl2, 2 mM NAD and 1 mM glyceraldehyde. (FEBS Lett. 2006, 580, 1198-1204)

[2] = Ethanol tolerance of enzymes (E50); type: biochemical
[3] = Isobutanol tolerance of enzymes (I50); type: biochemical
[4] = Determination of specific activity of purified TaALDH variants; type: biochemical; settings: purified enzyme, 1 mM D-Glyceraldehyde, 50° C., pH 7
From the text: The Ta-aldh gene was cloned in pCBR-Chis expression vector as described above. Mutations F34L, F34M, Y399C, S405C and S405N were inserted into Ta-aldh gene by Quickchange PCR as described above. For recombinant expression, E. coli BL21 (DE3) was transformed with pCBR-Ta-aldh-Chis, pCBR-Ta-aldh-f34I-s405c-Chis, pCBR-Ta-aldh-f34m-s405n-Chis or pCBR-Ta-aldh-f34m-y399c-s405n-Chis. Each of the four variants was produced using the following protocol:
Large amounts of a TaALDH-Variant were produced with fed-batch fermentation in a 40 L Biostat Cplus bioreactor (Sartorius Stedim, Goettingen, Germany). Defined media was supplemented with 30 μg/ml kanamycin. After inoculation cells were grown at 30° C. for 24 h and induced with 0.3 mM IPTG. Enzyme expression was performed at 30° C. for 3 h. One fermentation produced 300 g cells (wet weight). Cells were harvested and lysed with Basic-Z Cell Disruptor (Constant Systems, Northants, UK) in loading buffer (200 mM NaCl; 20 mM Imidazol; 2.5 mM MgCl2; 50 mM NaPi, pH 6.2). After heat treatment at 50° C. for 30 min, cell debris and protein aggregates were separated from soluble fraction by centrifugation at 30,000 g at 20° C. for 30 min (Sorvall RC6+, SS-34 rotor, Thermo Scientific).
Soluble fraction of His-tagged TaALDH-Variant was further purified by Ni-NTA chromatography using ÄKTA UPC-900 FPLC-system (GE Healthcare, Freiburg, Germany). Supernatant was loaded on HiTrap FF-column and washed with two column volumes of loading buffer. Highly purified and concentrated TaALDH was fractioned after elution in imidazole buffer (200 mM NaCl; 500 mM imidazol; 50 mM NaPi, pH 6.2). Buffer was changed to 20 mM (NH4)HCO3 with HiPrep 26/10 Desalting column and TaALDH was lyophilized with an Alpha 2-4 LD Plus freeze dryer (Martin Christ GmbH, Osterode am Harz, Germany).
TaALDH activity was determined spectrophotometrically at 50° C. by measuring the rate of cofactor reduction at 340 nm in flat bottom microtiter plates (Grainer BioOne) with a Fluorostar Omega Photometer (BMG Labtech GmbH, Ortenberg, Germany). One unit of activity was defined as reduction of 1 μmol of cofactor per minute.

[5] = Screening of TaALDH variants, relative activity under standard conditions (2 mM NAD); type: biochemical
Experimental: (§2) Colonies of E. coli BL21 (DE3) containing Ta-ALDH library were transferred into 96-deepwell plates (Gainer BioOne) containing Zym5052 autoinduction medium (Protein Expression and Purification, 2005. 41(1): p. 207-234). Cultures were grown over night at 37° C., 1000 rpm. Cells were harvested by centrifugation at 5000 g at 2° C. for 2 min and lysed with B-Per® protein extraction reagent (Thermo Fisher Scentific, Rockford, USA). After incubation for 60 min at 50° C., insoluble cell debris and was removed by centrifugation at 5000 g at 20° C. for 30 min. Supernatants containing variants of TaALDH were tested for relative activity under standard conditions: 2 mM NAD, 1 mM D-glyceraldehyde in 50 mM HEPES (pH 7) at 50° C. After 20 min NADH formation was detected spectrophotometrically at 340 nm.
(§3) The values “relative to wt” are the mU/mL values normalized to the wildtype control value.

[6] = Cofactor acceptance of Ta-ALDH variants (10 mM NAD); type: biochemical
Experimental: as §2
Change in cofactor acceptance of Ta-ALDH variants was tested under standard assay conditions but with 10 mM NAD. After 20 min NADH formation was detected and compared to relative activity.
as §3

[7] = Activity in solvents of Ta-ALDH variants (3 % isobutanol); type: biochemical
Experimental: as §2
Activity in solvents of Ta-ALDH variants was tested under standard assay conditions containing additional solvent. After 20 min NADH formation was detected and compared to relative activity.
as §3

[8] = cited from earlier work
[9] = Enzyme half-life at 50° C.
[10] = PDC activity for natural substrate; type: biochemical
From the text: as §1

[11] = Enzyme temperature optimum; type: biochemical; settings: Table 1
Thermal tolerance of PDC = type: physicochemical
[12] = KDGA activity in cleavage direction (HPLC); type: biochemical; settings: natural substrate
Experimental: as §1
KDGA activity: KDGA activity was followed in cleavage direction at 50° C. Reaction mixture contained 50 mM HEPES (pH 7), 0.1 mM thiamine pyrophosphate, 2.5 mM MgCl2, 20 U PDC and 10 mM KDG. KDG cleavage was followed by HPLC as described below.
Sample volume was 10 μl in each case.

[13] = ADH activity with acetaldehyde as substrate; type: biochemical
From the text: as §1

[14] = ADH activity, NADH-dependent reduction of isobutyraldehyde; type: biochemical; settings: substrate isobutyraldehyde
From the text: as §1

[15] = Table 1, value with literature reference
[16] = Table 2, value with literature reference

B1: F34M Y399C S405N: Aldehyde Dehydrogenase ALDH (EC 1.2.1.3), Thermoplasma acidophilum, Mutations F34M+Y399C+S405N, Seq ID 10; the engineered ALDH of Tables 1 and 2 (protein)
chain: MDTKLYIDGQWVNSSSGKTVDKYSPVTGQVIGRMEAATRDDVDRAIDAAEDAFWAWNDLGSVERSKIIYRAKELIEKNRAELENIIMEENGKPVKEAKEEVDGVIDQIQYYAEWARKLNGEVVEGTSSHRKIFQYKVPYGIVVALTPWNFPAGMVARKLAPALLTGNTVVLKPSSDTPGSAEWIVRKFVEAGVPKGVLNFITGRGSEIGDYIVEHKKVNLITMTGSTATGQRIMQKASANMAKLILELGGKAPFMVWKDADMDNALKTLLWAKYWNAGQSCIAAERLYVHEDIYDTFMSRFVELSRKLALGDPKNADMGPLINKGALQATSEIVEEAKESGAKILFGGSQPSLSGPYRNGYFFLPTIIGNADQKSKIFQEEIFAPVIGARKISSVEEMCDLANDNKYGLASYLFTKDPNIIFEASERIRFGELYVNMPGPEASQGYHTGFRMTGQAGEGSKYGISEYLKLKNIYVDYSGKPLHINTVRDDLFQSGRPVLGSSHHHHHH
modifications: Aldehyde Dehydrogenase (EC 1.2.1.3), Thermoplasma acidophilum, variant F34M-Y399C-S405N Protein sequence including C-terminal His-Tag
In the case of B1, the “Activity, 50° C.” value [1] is reported as 1 U/mg, the “E50: Ethanol concentration which causes loss of 50% activity” value ([2]; 60° C.) is reported as 13 (60° C.) % v/v and the “isobutanol concentration that already induces adverse effects on activity” value [3] is reported as 3 % (v/v). For the same molecule, the “I50: Isobutanol concentration which causes loss of 50% activity” value ([3]; 50° C.) was 3 (50° C.) % v/v, the “specific activity (U/mg) at 2 mM NAD” value [4] was 1.2 U/mg and the “2 mM NAD (mU/mL)” value ([5]; 1 mM D-glyceraldehyde, 50° C., pH 7, lysate supernatant) was 130.81 mU/mL. For the same molecule, the relative to wt ([5]; mU/mL values normalized to the wildtype control value) was 45.3, the “10 mM NAD (mU/mL)” value ([6]; 10 mM NAD, 1 mM D-glyceraldehyde, 50° C., pH 7) was 396.91 mU/mL and the relative to wt ([6]; 10 mM NAD, normalized to the wildtype control value) was 33.3. For the same molecule, the 10 mM NAD /2 mM NAD ([6]; ratio of activity at 10 mM NAD to 2 mM NAD) was 0.7, the “3 % isobutanol, 2 mM NAD (mU/mL)” value ([7]; 3 % isobutanol, 2 mM NAD, 50° C., pH 7) was 74.77 mU/mL and the relative to wt ([7]; 3 % isobutanol, 2 mM NAD, normalized to the wildtype control value) was 46.9. For the same molecule, the “Stab. rel to wt” value ([7]; stability in 3 % isobutanol relative to wildtype) was 1, the T-Optimum [8, 15] was 63^[2] 50 °C and the T-Optimum [8, 16] was 63^[2] ° C. For the same molecule, the “Half-life, 50° C.” value [9] was 12 h.

B2: PDC: Pyruvate decarboxylase PDC (EC 4.1.1.1), Zymomonas mobilis, Seq ID 20 (protein)
chain: MSYTVGTYLAERLVQIGLKHHFAVAGDYNLVLLDNLLLNKNMEQVYCCNELNCGFSAEGYARAKGAAAAVVTYSVGALSAFDAIGGAYAENLPVILISGAPNNNDHAAGHVLHHALGKTDYHYQLEMAKNITAAAEAIYTPEEAPAKIDHVIKTALREKKPVYLEIACNIASMPCAAPGPASALFNDEASDEASLNAAVEETLKFIANRDKVAVLVGSKLRAAGAEEAAVKFADALGGAVATMAAAKSFFPEENPHYIGTSWGEVSYPGVEKTMKEADAVIALAPVFNDYSTTGWTDIPDPKKLVLAEPRSVVVNGIRFPSVHLKDYLTRLAQKVSKKTGALDFFKSLNAGELKKAAPADPSAPLVNAEIARQVEALLTPNTTVIAETGDSWFNAQRMKLPNGARVEYEMQWGHIGWSVPAAFGYAVGAPERRNILMVGDGSFQLTAQEVAQMVRLKLPVIIFLINNYGYTIEVMIHDGPYNNIKNWDYAGLMEVFNGNGGYDSGAGKGLKAKTGGELAEAIKVALANTDGPTLIECFIGREDCTEELVKWGKRVAAANSRKPVNKLLSGRPVLGSSHHHHHH
modifications: Pyruvate decarboxylase (EC 4.1.1.1), Zymomonas mobilis Protein sequence including C-terminal His-Tag
For B2, the “Activity, 50° C.” value [10] was 64 U/mg, the T-Optimum [11] was 50 50 °C and the “E50: Ethanol concentration which causes loss of 50% activity” value ([2]; 50° C.) was 20 (50° C.) % v/v. For the same molecule, the “I50: Isobutanol concentration which causes loss of 50% activity” value ([3]; 45° C.) was 8 (45° C.) % v/v, the “thermostable up to” value (Thermal tolerance of PDC) was “up to 50 °C” and the “Half-life, 50° C.” value [9] was 22 h.

B3: KDGA: 2-Keto-3-deoxygluconate aldolase KDGA (EC 4.1.2.14), Sulfolobus acidocaldaricus, Seq ID 06 (protein, listed as Sulfolobus acidocaldarius)
chain: MEIISPIITPFDKQGKVNVDALKTHAKNLLEKGIDAIFVNGTTGLGPALSKDEKRQNLNALYDVTHKLIFQVGSLNLNDVMELVKFSNEMDILGVSSHSPYYFPRLPEKFLAKYYEEIARISSHSLYIYNYPAATGYDIPPSILKSLPVKGIKDTNQDLAHSLEYKLNLPGVKVYNGSNTLIYYSLLSLDGVVASFTNFIPEVIVKQRDLIKQGKLDDALRLQELINRLADILRKYGSISAIYVLVNEFQGYDVGYPRPPIFPLTDEEALSLKREIEPLKRKIQELVH
With B3 the “Activity, 50° C.” value [12] was 4 U/mg, the “E50: Ethanol concentration which causes loss of 50% activity” value ([2]; 60° C.) was 15 (60° C.) % v/v and the “I50: Isobutanol concentration which causes loss of 50% activity” value ([3]; 60° C., above solubility) was >12 (60° C.)^b % v/v. The “activity in a two-phase isobutanol/water system” value ([3]; two-phase system forms at product titers above 12% (v/v)) was “remains completely active”, the T-Optimum [8, 15] was 99^[1] 50 °C and the T-Optimum [8, 16] was 99^[1] ° C. The “Half-life, 50° C.” value [9] was >24 h.

B4: ADH: Alcohol dehydrogenase ADH (EC 1.1.1.1), Geobacillus stearothermophilus, Seq ID 18 (protein)
chain: MKAAVVEQFKEPLKIKEVEKPTISYGEVLVRIKACGVCHTDLHAAHGDWPVKPKLPLIPGHEGVGIVEEVGPGVTHLKVGDRVGIPWLYSACGHCDYCLSGQETLCEHQKNAGYSVDGGYAEYCRAAADYVVKIPDNLSFEEAAPIFCAGVTTYKALKVTGAKPGEWVAIYGIGGLGHVAVQYAKAMGLNVVAVDIGDEKLELAKELGADLVVNPLKEDAAKFMKEKVGGVHAAVVTAVSKPAFQSAYNSIRRGGACVLVGLPPEEMPIPIFDTVLNGIKIIGSIVGTRKDLQEALQFAAEGKVKTIIEVQPLEKINEVFDRMLKGQINGRVVLTLEDKLEHHHHHH
modifications: Alcohol dehydrogenase (EC 1.1.1.1), Geobacillus stearothermophilus Protein sequence including C-terminal His-Tag
With B4 the “Activity, 50° C. (ADH for acetaldehyde)” value [13] was 210 U/mg, the “Activity, 50° C. (ADH for isobutyraldehyde)” value [14] was 83 U/mg and the “E50: Ethanol concentration which causes loss of 50% activity” value ([2]; 50° C.) was 25 (50° C.) % v/v. For the same molecule, the “I50: Isobutanol concentration which causes loss of 50% activity” value ([3]; 50° C.) was 5 (50° C.) % v/v, the T-Optimum [8, 15] was >60^[3] 50 °C and the T-Optimum [8, 16] was >60^[3] ° C. For the same molecule, the “Half-life, 50° C.” value [9] was >24 h.
